# Key:
# Assay in all cases: cell-based or functional assay
# [1] = target: Env of HIV isolate 0260.v5.c36 (clade A) (HIV)
# [2] = target: Env of HIV isolate 0330.v4.c3 (clade A) (HIV)
# [3] = target: Env of HIV isolate 231965.c01 (clade D) (HIV)
# [4] = target: Env of HIV isolate 25711-2.4 (clade C) (HIV)
# [5] = target: Env of HIV isolate 3016.v5.c45 (clade D) (HIV)
# [6] = target: Env of HIV isolate 3301.v1.c24 (clade AC) (HIV)
# [7] = target: Env of HIV isolate 3337.v2.c6 (clade CD) (HIV)
# [8] = target: Env of HIV isolate 6545.v4.c1 (clade AC) (HIV)
# [9] = target: Env of HIV isolate A03349M1.vrc4a (clade D) (HIV)
# [10] = target: Env of HIV isolate BJOX009000.02.4 (clade AE) (HIV)
# [11] = target: Env of HIV isolate BJOX010000.06.2 (clade AE) (HIV)
# [12] = target: Env of HIV isolate C3347.c11 (clade AE) (HIV)
# [13] = target: Env of HIV isolate CH119.10 (clade BC) (HIV)
# [14] = target: Env of HIV isolate CNE15 (clade BC) (HIV)
# [15] = target: Env of HIV isolate CNE30 (clade C in Table 7) (HIV)
# [16] = target: Env of HIV isolate Ce1176.A3 (clade C) (HIV)
# [17] = target: Env of HIV isolate KER2008.12 (clade A) (HIV)
# [18] = target: Env of HIV isolate R3265.c6 (clade AE) (HIV)
# [19] = target: Env of HIV isolate RW020.2 (clade A) (HIV)
# [20] = target: Env of HIV isolate T250-4 (clade AG) (HIV)
# [21] = target: Env of HIV isolate T266-60 (clade AG) (HIV)
# [22] = target: Env of HIV isolate TH023.6 (clade AE) (HIV)
# [23] = target: Env of HIV isolate TZA125.17 (clade C) (HIV)
# [24] = target: Env of HIV isolate WITO.33 (clade B) (HIV)
# [25] = target: Env of HIV isolate YU2.DG (clade B) (HIV)
# Env of SIVmac251.30.SG3 = target: Env of SIVmac251.30.SG3
# [26] = target: Envelope protein of SIVmac251.30.SG3 (clade NA)
# [27] = target: HIV Env of isolate 191821.E6.1 (HIV)
# [28] = target: HIV Env of isolate 3168.v4.c10 (HIV)
# [29] = target: HIV Env of isolate 3337.v2.c6 (HIV)
# [30] = target: HIV Env of isolate 6095.v1.c10 (HIV)
# [31] = target: HIV Env of isolate 6471.v1.c16 (HIV)
# [32] = target: HIV Env of isolate 6535.3 (HIV)
# [33] = target: HIV Env of isolate 6644.v2.c33 (HIV)
# [34] = target: HIV Env of isolate AC10.29 (HIV)
# [35] = target: HIV Env of isolate BJOX010000.06.2 (HIV)
# [36] = target: HIV Env of isolate BR025.9 (HIV)
# [37] = target: HIV Env of isolate CAP256.206.C9 (HIV)
# [38] = target: HIV Env of isolate CAP45.G3 (HIV)
# [39] = target: HIV Env of isolate CM244.ec1 (HIV)
# [40] = target: HIV Env of isolate CNE3 (HIV)
# [41] = target: HIV Env of isolate Ce1176.A3 (HIV)
# [42] = target: HIV Env of isolate HO86.8 (HIV)
# [43] = target: HIV Env of isolate MN.3 (HIV)
# [44] = target: HIV Env of isolate Q769.d22 (HIV)
# [45] = target: HIV Env of isolate Q769.h5 (HIV)
# [46] = target: HIV Env of isolate SF162.LS (HIV)
# [47] = target: HIV Env of isolate T253-11 (HIV)
# [48] = target: HIV Env of isolate THRO.18 (HIV)
# [49] = target: HIV Env of isolate UG037.8 (HIV)
# [50] = target: HIV Env of isolate YU2.DG (HIV) (UniProt P35961)
# HIV Env of isolate YU2.DG (HIV), sequence (P35961 32-843 limits assumed): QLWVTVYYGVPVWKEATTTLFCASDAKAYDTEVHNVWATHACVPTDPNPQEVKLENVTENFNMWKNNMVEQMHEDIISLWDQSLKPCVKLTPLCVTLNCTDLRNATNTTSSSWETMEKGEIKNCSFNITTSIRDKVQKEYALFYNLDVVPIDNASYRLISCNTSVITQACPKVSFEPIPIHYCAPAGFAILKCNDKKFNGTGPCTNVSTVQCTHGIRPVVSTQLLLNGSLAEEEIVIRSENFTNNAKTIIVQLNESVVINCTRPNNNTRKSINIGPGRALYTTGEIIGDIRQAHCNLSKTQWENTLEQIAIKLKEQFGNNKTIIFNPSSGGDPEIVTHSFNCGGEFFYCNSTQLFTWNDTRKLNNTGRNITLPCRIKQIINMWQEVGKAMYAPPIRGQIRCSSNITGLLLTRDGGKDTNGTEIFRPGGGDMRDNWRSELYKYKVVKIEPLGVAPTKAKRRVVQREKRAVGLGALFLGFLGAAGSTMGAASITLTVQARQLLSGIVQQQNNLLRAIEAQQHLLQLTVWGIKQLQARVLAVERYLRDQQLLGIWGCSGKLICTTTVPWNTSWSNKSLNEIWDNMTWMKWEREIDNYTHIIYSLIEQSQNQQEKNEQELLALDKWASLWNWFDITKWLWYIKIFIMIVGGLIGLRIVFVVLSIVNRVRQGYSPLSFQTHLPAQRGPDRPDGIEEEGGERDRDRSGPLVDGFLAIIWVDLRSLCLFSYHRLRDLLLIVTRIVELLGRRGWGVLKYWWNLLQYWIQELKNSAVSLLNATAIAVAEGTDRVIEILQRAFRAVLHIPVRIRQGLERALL
# [51] = target: HIV Env of isolate ZM197.7 (HIV)
substance,measurement,setting,value
PGT121 (antibody),"IC50, pseudovirus neutralization",[1],0.0587 µg/mL
same,"IC50, pseudovirus neutralization",[2],0.0597 µg/mL
same,"IC50, pseudovirus neutralization",[3],> 50 µg/mL
same,"IC50, pseudovirus neutralization",[4],0.0173 µg/mL
same,"IC50, pseudovirus neutralization",[5],> 50 µg/mL
same,"IC50, pseudovirus neutralization",[6],0.0217 µg/mL
same,"IC50, pseudovirus neutralization",[7],1.39 µg/mL
same,"IC50, pseudovirus neutralization",[8],> 50 µg/mL
same,"IC50, pseudovirus neutralization",[9],0.0747 µg/mL
same,"IC50, pseudovirus neutralization",[10],0.751 µg/mL
same,"IC50, pseudovirus neutralization",[11],> 50 µg/mL
same,"IC50, pseudovirus neutralization",[12],> 50 µg/mL
same,"IC50, pseudovirus neutralization",[13],0.0313 µg/mL
same,"IC50, pseudovirus neutralization",[14],6.64 µg/mL
same,"IC50, pseudovirus neutralization",[15],0.114 µg/mL
same,"IC50, pseudovirus neutralization",[16],0.0243 µg/mL
same,"IC50, pseudovirus neutralization",[17],0.553 µg/mL
same,"IC50, pseudovirus neutralization",[18],> 50 µg/mL
same,"IC50, pseudovirus neutralization",[19],0.01 µg/mL
same,"IC50, pseudovirus neutralization",[20],0.00433 µg/mL
same,"IC50, pseudovirus neutralization",[21],0.143 µg/mL
same,"IC50, pseudovirus neutralization",[22],> 50 µg/mL
same,"IC50, pseudovirus neutralization",[23],1.45 µg/mL
same,"IC50, pseudovirus neutralization",[24],0.479 µg/mL
same,"IC50, pseudovirus neutralization",[25],0.0397 µg/mL
same,"IC80, pseudovirus neutralization",Env of SIVmac251.30.SG3,> 50 µg/mL
same,"IC50, pseudovirus neutralization",[26],> 50 µg/mL
same,"IC80, pseudovirus neutralization",[27],> 50 µg/mL
same,"IC80, pseudovirus neutralization",[28],1.43 µg/mL
same,"IC80, pseudovirus neutralization",[29],> 50 µg/mL
same,IC80,[30],> 50 µg/mL
same,"IC80, pseudovirus neutralization",[31],> 50 µg/mL
same,IC80,[32],0.0217 µg/mL
same,"IC80, pseudovirus neutralization",[33],0.14 µg/mL
same,IC80,[34],0.149 µg/mL
same,IC80,[35],> 50 µg/mL
same,"IC80, pseudovirus neutralization",[36],0.0253 µg/mL
same,"IC80, pseudovirus neutralization",[37],0.046 µg/mL
same,"IC80, pseudovirus neutralization",[38],> 50 µg/mL
same,IC80,[39],> 50 µg/mL
same,IC80,[40],> 50 µg/mL
same,"IC80, pseudovirus neutralization",[41],0.066 µg/mL
same,IC80,[42],> 50 µg/mL
same,IC80,[43],> 50 µg/mL
same,IC80,[44],> 50 µg/mL
same,IC80,[45],> 50 µg/mL
same,IC80,[46],0.021 µg/mL
same,IC80,[47],> 50 µg/mL
same,IC80,[48],> 50 µg/mL
same,IC80,[49],0.307 µg/mL
same,IC80,[50],0.126 µg/mL
same,"IC80, pseudovirus neutralization",[51],> 50 µg/mL
